Source: patent publication US9255257B2, “PmST1 mutants for chemoenzymatic synthesis of sialyl lewis X compounds” (THE REGENTS OF THE UNIVERSITY OF CALIFORNIA, priority 2011, dated 2016)
Positions count from the first letter of the chain named. In names and notes the source's numbering stands. Entries after “also recorded” stand apart in the source; their conditions may differ.

B1: M144D (protein, listed as Pasteurella multocida)
chain: MKNRRLNFKLFFLIIFSLFSTLSWSKTITLYLDPASLPALNQLMDFTQNNEDKTHPRIFGLSRFKIPDNIITQYQNIHFVELKDNRPTEALFTILDQYPGNIELNIHLNIAHSVQLIRPILAYRFKHLDRVSIQQLNLYDDGSDEYVDLEKEENKDISAEIKQAEKQLSHYLLTGKIKFDNPTIARYVWQSAFPVKYHFLSTDYFEKAEFLQPLKEYLAENYQKMDWTAYQQLTPEQQAFYLTLVGFNDEVKQSLEVQQAKFIFTGTTTWEGNTDVREYYAQQQLNLLNHFTQAEGDLFIGDHYKIYFKGHPRGGEINDYILNNAKNITNIPANISFEVLMMTGLLPDKVGGVASSLYFSLPKEKISHIIFTSNKQVKSKEDALNNPYVKVMRRLGIIDESQVIFWDSLKQL
modifications: PmST1 wild-type glycosyltransferase family 80 (GT80), GT80 sialyltransferase, Pm0188Ph
B2: M144H (protein)
chain: B1 chain with D144H

Columns and labels:
[1] = biological target: Pasteurella multocida PmST1 mutant M144H of SEQ ID NO: 13 (M120H of Δ24PmST1, SEQ ID NO: 5) (Pasteurella multocida, UniProt Q15KI8, M144H); assay: α2-3-sialyltransferase activity, LacβMU as acceptor; assay type: biochemical; conditions: apparent, acceptor, CMP-Neu5Ac 1 mM, Tris-HCl pH 8.5, 37° C.
Description: (§1) Site-directed mutagenesis, expression and purification of PmST1 mutants. Site-directed mutagenesis was performed using the QuikChange multi-site-directed mutagenesis kit from Stratagene according to the manufacturer's protocol. The primers used were 5′-[…]-3′ (SEQ ID NO:35) for M144D; 5′-[…]a[…] -3′ (SEQ ID NO:36) for M144H; 5′-[…]-3′ (SEQ ID NO:37) for A35D; and 5′-[…]-3′ (SEQ ID NO:38) for A35H. The expression and purification of the mutants were performed as previously described for the WT PmST1 .
(§2) Kinetics of the α2-3-sialyltransferase activity of PmST1 mutants by HPLC analysis. With LacβMU as the acceptor substrate, the reactions were performed in duplicate at 37° C. for 10 min (M144D) or 4 min (M144H) in a reaction mixture (10 μL) containing Tris-HCl (100 mM, pH 8.5), an enzyme (5 μg mL^−1), and different concentrations (0.2, 0.5, 1.0, 2.0, and 5.0 mM) of LacβMU with a fixed concentration (1 mM) of CMP-Neu5Ac or different concentrations (0.2, 0.5, 1.0, 2.0, 5.0, and 10.0 mM) of CMP-Neu5Ac with a fixed concentration (1 mM) of LacβMU. With Le^xβMU as the acceptor substrate, the reactions were carried out in duplicate at 37° C. for 9 min (M144D) or 10 min (M144H) in a reaction mixture (10 μL) containing CAPSO (100 mM, pH 9.5), an enzyme (M144D, 39 μg mL^−1 or M144H, 5 μg mL^−), and various concentrations of Le^xβMU (1.0, 5.0, 10.0, 15.0, 25.0, and 35.0 mM) with a fixed concentration (1 mM) of CMP-Neu5Ac or various concentrations (0.2, 0.5, 1.0, 2.0, 5.0, 10.0, 20.0, and 40.0 mM) of CMP-Neu5Ac with a fixed concentration (1 mM) of Le^xβMU. Reactions were stopped by adding 10 μL of pre-chilled ethanol. The mixtures were incubated on ice for 30 min and centrifuged at 13,000 rpm for 5 min. The supernatants were diluted with 25% acetonitrile and kept on ice until aliquots of 8 μL were injected and analyzed by the Shimadzu LC-6AD system equipped with a membrane on-line degasser, a temperature control unit, and a fluorescence detector (Shimadzu RF-10AXL). A reverse-phase Premier C18 column (250×4.6 mm i.d., 5 μm particle size, Shimadzu) protected with a C18 guard column cartridge was used. The mobile phase was 25% acetonitrile. The fluorophore (MU)-labeled compounds were detected by excitation at 325 nm and emission at 372 nm. The apparent kinetic parameters were obtained by fitting the experimental data (the average values of duplicate assay results) into the Michaelis-Menten equation using Grafit 5.0.

[2] = biological target: Pasteurella multocida PmST1 mutant M144D of SEQ ID NO: 13 (M120D of Δ24PmST1, SEQ ID NO: 3) (Pasteurella multocida, UniProt Q15KI8, M144D); assay: as above; assay type: biochemical; conditions: apparent, acceptor, CMP-Neu5Ac 1 mM, Tris-HCl pH 8.5, 37° C.
Description: as §1, §2

[3] = biological target: Pasteurella multocida PmST1 mutant R313Y of SEQ ID NO: 13 (R289Y of Δ24PmST1, SEQ ID NO: 9) (Pasteurella multocida, UniProt Q15KI8, R313Y); assay: as above; assay type: biochemical; conditions: apparent, acceptor, CMP-Neu5Ac 1 mM, Tris-HCl pH 8.5, 37° C.
Description: (§3) To obtain the apparent kinetic parameters of LacβMU as the acceptor for the α2-3-sialyltransferase activity, the kinetic assays were performed in duplicate in reaction mixtures of 10 μL containing Tris-HCl buffer (100 mM, pH 8.5), a fixed concentration of CMP-Neu5Ac (1 mM), different concentrations of LacβMU (0.2, 0.5, 1.0, 2.0, 5.0, and 9.0 mM) and the mutant proteins (2 μg mL^−1 of E271F, 2 μg mL^−1 of R313Y, and 1.6 μg mL^−1 of E271F/R313Y). All reactions were allowed to proceed at 37° C. for 5 min (E271F), 7 min (R313Y), and 10 min (E271F/R313Y). The apparent kinetic parameters were obtained by fitting the experimental data (the average values of duplicate assay results) into the Michaelis-Menten equation using Grafit 5.0.
(§4) To obtain the apparent kinetic parameters of CMP-Neu5Ac as the donor for the α2-3-sialyltransferase activity, the kinetic assays were performed in duplicate in reaction mixtures of 10 μL containing Tris-HCl buffer (100 mM, pH 8.5), a fixed concentration of LacβMU (1 mM), different concentrations of CMP-Neu5Ac (0.1, 0.2, 0.5, 1.0, 2.0, 5.0, 10.0 and 20.0 mM) and the mutant proteins (2 μg mL^−1 of E271F, 2 μg mL^−1 of R313Y, and 1.6 μg mL^−1 of E271F/R313Y). All reactions were allowed to proceed at 37° C. for 2 min (E271F), 7 min (R313Y), and 5 min (E271F/R313Y). The apparent kinetic parameters were obtained by fitting the experimental data (the average values of duplicate assay results) into the Michaelis-Menten equation using Grafit 5.0.
(§5) All the sialidase and α2-3-sialyltransferase assays were performed in an HPLC system. Reactions were stopped by adding 10 μL of ethanol. After necessary dilutions were performed to adjust the concentrations of the fluorescent-labeled compounds, the samples were then kept on ice until aliquots of 8 μL were injected and analyzed by a Shimadzu LC-6AD system equipped with a membrane on-line degasser, a temperature control unit, and a fluorescence detector (Shimadzu RF-10AXL). A reverse-phase Premier C18 column (250×4.6 mm i.d., 5 μm particle size, Shimadzu) protected with a C18 guard column cartridge was used. The mobile phase was 25% acetonitrile. The fluorescent compounds LacβMU and Neu5Acα2-3LacβMU were detected by excitation at 325 nm and emission at 372 nm.

[4] = biological target: Pasteurella multocida PmST1 mutant E271F of SEQ ID NO: 13 (E247F of Δ24PmST1, SEQ ID NO: 7) (Pasteurella multocida, UniProt Q15KI8, E271F); assay: as above; assay type: biochemical; conditions: apparent, acceptor, CMP-Neu5Ac 1 mM, Tris-HCl pH 8.5, 37° C.
Description: as §3, §4, §5

[5] = biological target: Pasteurella multocida PmST1 double mutant E271F/R313Y of SEQ ID NO: 13 (E247F/R289Y of Δ24PmST1, SEQ ID NO: 11) (Pasteurella multocida, UniProt Q15KI8, E271F/R313Y); assay: as above; assay type: biochemical; conditions: apparent, acceptor, CMP-Neu5Ac 1 mM, Tris-HCl pH 8.5, 37° C.
Description: as §3, §4, §5

[6] = biological target: Pasteurella multocida α2-3-sialyltransferase 1 (PmST1), wild type (WT), SEQ ID NO: 13 (Pasteurella multocida, UniProt Q15KI8); conditions: apparent, acceptor, read-out: Km for LacβMU; cited from earlier work
[7] = α2-3-sialidase activity assay with sialyl Le^x substrate (HPLC); assay type: biochemical; conditions: for Neu5Ac cleaved from Neu5Acα2-3Le^xβMU: substrate 1 mM, enzyme 4 mg mL^−1, MES pH 5.5, 37° C.
Description: The α2-3-sialidase activity assays of PmST1 and mutants. The reactions were carried out in duplicate in a total volume of 10 μL at 37° C. for 20 hr in MES buffer (100 mM, pH 5.5) containing Neu5Acα2-3Le^xβMU (1 mM) and an enzyme (4 mg mL^−1). Aliquots of 1 μL were withdrawn at 1 hr, 6 hr and 20 hr, and analyzed by HPLC as described above for the α2-3-sialyltransferase assays.

[8] = Apparent kinetics of the α2-3-sialyltransferase activity, Le^xβMU acceptor and CMP-Neu5Ac donor (HPLC); assay type: biochemical; conditions: acceptor Le^xβMU
[9] = Apparent kinetics of the α2-3-sialidase activity (HPLC, fluorescent sialoside substrate); assay type: biochemical; conditions: substrate Neu5Acα2-3LacβMU
Description: All the sialidase and α2-3-sialyltransferase assays were performed in an HPLC system. Reactions were stopped by adding 10 μL of ethanol. […] The mobile phase was 25% acetonitrile.
Kinetics of the α2-3-sialidase activity of PmST1 mutants.

[10] = Kinetics of the donor (CMP-Neu5Ac) hydrolysis activity by capillary electrophoresis; assay type: biochemical
Description: The reactions were stopped by adding 10 μL of pre-chilled ethanol. The mixtures were incubated on ice for 30 min and centrifuged at 13,000 rpm for 5 min. The supernatants were diluted with borate buffer (25 mM, pH 9.5) and aliquotes of 5 μL each were injected to a Beckman Coulter P/ACE™ MDQ Capillary Electrophoresis system equipped with a capillary (60 cm×75 μm i.d.) and monitored at 254 nm. The apparent kinetic parameters were obtained by fitting the experimental data (the average values of duplicate assay results) into the Michaelis-Menten equation using Grafit 5.0.

[11] = Apparent kinetics of the α2-3-sialyltransferase activity, LacβMU acceptor and CMP-Neu5Ac donor (HPLC); assay type: biochemical; conditions: acceptor LacβMU
Description: as §3, §4, §5
Kinetics of the α2-3-sialyltransferase activity of PmST1 mutants by HPLC analysis. […] The supernatants were diluted with 25% acetonitrile and kept on ice until aliquots of 8 μL were injected and analyzed by the Shimadzu LC-6AD system equipped with a membrane on-line degasser, a temperature control unit, and a fluorescence detector (Shimadzu RF-10AXL). […] The fluorophore (MU)-labeled compounds were detected by excitation at 325 nm and emission at 372 nm. […]

Molecule | kcat (LacβMU) [1] | kcat (LacβMU) [2] | kcat (LacβMU) [3] | kcat (LacβMU) [4] | kcat (LacβMU) [5] | Km [6] | sialidase activity with Neu5Acα2-3Le^xβMU as substrate (in words) [7] | change of efficiency of α2-3-sialyltransferase activity compared to WT (in words) [8] | decrease of α2-3-sialidase activity (catalytic efficiency kcat/Km) compared to wild-type PmST1 [9] | decrease of efficiency of CMP-Neu5Ac (donor) hydrolysis activity compared to WT [10] | decrease of kcat value, donor hydrolysis, compared to WT [10] | increase of Km value, donor hydrolysis, compared to WT [10] | decrease of kcat value, α2-3-sialyltransferase activity, compared to WT [11] | decrease of α2-3-sialyltransferase activity compared to WT [11] | increase of Km value, α2-3-sialyltransferase activity, compared to WT [11] | Neu5Ac cleaved from Neu5Acα2-3Le^xβMU ([7]; 1 h) | Neu5Ac cleaved from Neu5Acα2-3Le^xβMU ([7]; 6 h) | Neu5Ac cleaved from Neu5Acα2-3Le^xβMU ([7]; 20 h) | increase of efficiency of α2-3-sialyltransferase activity compared to WT [8] | increase of kcat value, donor hydrolysis, compared to WT [10]
Cc1cc(=O)oc2cc(O[C@@H]3O[C@H](CO)[C@@H](O[C@@H]4O[C@H](CO)[C@H](O)[C@H](O)[C@H]4O)[C@H](O)[C@H]3O)ccc12 [LacβMU, 4-methylumbelliferyl β-lactoside] | 21 ± 1 s⁻¹ | 22 ± 1 s⁻¹ | 19 ± 1 s⁻¹ | 28 ± 1 s⁻¹ | 17 ± 1 s⁻¹ | 1400 µM |  |  |  |  |  |  |  |  |  |  |  |  |  | 
B1 |  |  |  |  |  |  | no sialidase activity | did not change the efficiency of the α2-3-sialyltransferase activity of PmST1 significantly; also recorded: without appreciably changing the efficiency of the α2-3-sialyltransferase activity | 5588 fold | 20 fold | 4.2 fold | 4.9 fold | 2 fold | 18 fold | 9 fold |  |  |  |  | 
B2 |  |  |  |  |  |  | increased sialidase activity compared to the WT PmST1 |  | 594 fold | 3.3 fold |  | 8.7 fold |  | 1.3 fold |  | 10.0% | 24.5% | 34.0% | 2.6 fold | 2.6 fold
